Laboratory results as given in US20210179715A1.
“And” between values parts separate entries of the source, which are not always exact repeats. Equal values may be shown once. Read-outs that look alike come from different tables or passages of the source.

T1: 27mer cyno CD3 polypeptide conjugated to biotin (cynomolgus monkey)
T1 sequence (peptide, conjugated to biotin (site not stated)): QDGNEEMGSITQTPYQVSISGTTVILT

T2: human LY6G6D-Fc (human) (UniProt O95868)
T2 sequence: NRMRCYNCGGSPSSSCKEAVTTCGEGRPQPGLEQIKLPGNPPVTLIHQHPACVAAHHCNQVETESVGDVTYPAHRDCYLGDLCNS


What was measured:
[1] = target: T1, 27mer cyno CD3 polypeptide conjugated to biotin (cynomolgus monkey); assay: BIAcore T200 SPR; biotin 27mer CD3 peptide on SA chip; TDB flowed; 37 C
[2] = target: T1, 27mer cyno CD3 polypeptide conjugated to biotin (cynomolgus monkey); assay: as above; remark: listed apart in the source
[3] = target: cynomolgus LY6G6D-Fc (cynomolgus monkey); assay: BIAcore SPR; two-cell TDB
[4] = target: cynomolgus LY6G6D-Fc (cynomolgus monkey); assay: BIAcore SPR; LY6G6D-Fc on chip; TDB flowed; 37 C
[5] = target: cynomolgus LY6G6D-Fc (cynomolgus monkey); assay: BIAcore SPR; LY6G6D-Fc on chip; TDB flowed; 37 C; remark: listed apart in the source
human LY6G6D-Fc (human) [6] = target: T2, human LY6G6D-Fc (human); assay: BIAcore SPR; LY6G6D-Fc on chip; TDB flowed; 37 C
human LY6G6D-Fc (human) [7] = target: T2, human LY6G6D-Fc (human); assay: BIAcore SPR; LY6G6D-Fc on chip; TDB flowed; 37 C; remark: listed apart in the source

Kd [1]	koff [1]	kon [1]	Kd [2] [µM]	Kd [3] [µM]	Kd [4] [µM]	koff [4] [s⁻¹]	kon [4] [M⁻¹ s⁻¹]	Kd [5] [µM]	koff [5] [s⁻¹]	kon [5] [M⁻¹ s⁻¹]	Kd (human LY6G6D-Fc (human) [6]) [µM]	koff (human LY6G6D-Fc (human) [6]) [s⁻¹]	kon (human LY6G6D-Fc (human) [6]) [M⁻¹ s⁻¹]	koff (human LY6G6D-Fc (human) [7]) [s⁻¹]	Binder
0.013 µM and 0.0165 µM	0.0337 s⁻¹ and 0.0364 s⁻¹	2.6e+06 M⁻¹ s⁻¹ and 2.21e+06 M⁻¹ s⁻¹	0.0148	0.00229	0.00192	0.000444	231000	0.00229	0.00038	166000					LY6G6D TDB comprising the anti-LY6G6D 20A12.QNTv12 arm (two-cell) and the anti-CD3 38E4v1 arm (bispecific antibody, V domains shown) VH 1: EVQLLESGGGLVQPGGSLRLSCAASGFDFVNNAMIWVRQAPGKGLEWVSALSFADNTAYYATWASGRFTISRDSSKTTVYLQMNSLRAEDTAVYYCMRGDLWGPGTLVTVSS VL 1: DIQMTQSPSTLSASVGDRVTITCQASESITRYLNWYQQKPGKAPKLLIYDASKLPSGVPSRFSGSGSGTEFTLTISSLQPDDFATYYCQSTSFRGRSYQNTFGGGTKVEIK VH 2: EVQLVQSGAEVKKPGASVKVSCKASGFTFTSYYIHWVRQAPGQGLEWIGWIYPENDNTKYNEKFKDRVTITADTSTSTAYLELSSLRSEDTAVYYCARDGYSRYYFDYWGQGTLVTVSS VL 2: DIVMTQSPDSLAVSLGERATINCKSSQSLLNSRTRKNYLAWYQQKPGQSPKLLIYWTSTRKSGVPDRFSGSGSGTDFTLTISSLQAEDVAVYYCKQSFILRTFGQGTKVEIK
								0.0131	0.00936	714000					LY6G6D TDB comprising the anti-LY6G6D 1G4 arm and the anti-CD3 38E4.v1 arm (bispecific antibody, V domains shown) VH 1: EVQLVQSGAEVKKPGASVKVSCKASGYTFTTYVMHWVRQAPGQGLEWMGYINPYNDGTKYNEKFKGRVTMTRDTSISTAYMELSRLRSDDTAVYYCGRRNFDYWGQGTLVTVSS VL 1: DIVMTQSPDSLAVSLGERATINCKSSQSLLLSGNQENYLAWHQQKPGQPPKTLITWASTRISGVPDRFSGSGSGTDFTLTISSLQAEDVAVYYCQQSYSAPYTFGGGTKVEIK VH 2: EVQLVQSGAEVKKPGASVKVSCKASGFTFTSYYIHWVRQAPGQGLEWIGWIYPENDNTKYNEKFKDRVTITADTSTSTAYLELSSLRSEDTAVYYCARDGYSRYYFDYWGQGTLVTVSS VL 2: DIVMTQSPDSLAVSLGERATINCKSSQSLLNSRTRKNYLAWYQQKPGQSPKLLIYWTSTRKSGVPDRFSGSGSGTDFTLTISSLQAEDVAVYYCKQSFILRTFGQGTKVEIK
								0.00491	0.000413	84300	0.00562	0.000453	80600	0.000456	LY6G6D TDB comprising the anti-LY6G6D 20A12.QNTv12 arm (two-cell) and the anti-CD3 40G5c arm (bispecific antibody, part only; not given: anti-CD3 arm and constant regions, V domains shown, part only) VH: EVQLLESGGGLVQPGGSLRLSCAASGFDFVNNAMIWVRQAPGKGLEWVSALSFADNTAYYATWASGRFTISRDSSKTTVYLQMNSLRAEDTAVYYCMRGDLWGPGTLVTVSS VL: DIQMTQSPSTLSASVGDRVTITCQASESITRYLNWYQQKPGKAPKLLIYDASKLPSGVPSRFSGSGSGTEFTLTISSLQPDDFATYYCQSTSFRGRSYQNTFGGGTKVEIK

The next lines start with the binder.

Binder	Kd [1]	koff [1]	kon [1]	Kd [2] [µM]	Kd [3] [µM]	Kd [4] [µM]	koff [4] [s⁻¹]	kon [4] [M⁻¹ s⁻¹]	Kd [5] [µM]	koff [5] [s⁻¹]	kon [5] [M⁻¹ s⁻¹]	Kd (human LY6G6D-Fc (human) [6]) [µM]	koff (human LY6G6D-Fc (human) [6]) [s⁻¹]	kon (human LY6G6D-Fc (human) [6]) [M⁻¹ s⁻¹]	koff (human LY6G6D-Fc (human) [7]) [s⁻¹]
LY6G6D TDB assembled using a one-cell system comprising the anti-LY6G6D 20A12.QNTv12 arm (one-cell) and the anti-CD3 38E4v1 (WT) arm (bispecific antibody, V domains shown) VH 1: EVQLLESGGGLVQPGGSLRLSCAASGFDFVNNAMIWVREAPGKGLEWVSALSFADNTAYYATWASGRFTISRDSSKTTVYLQMNSLRAEDTAVYYCMRGDLWGPGTLVTVSS VL 1: DIQMTQSPSTLSASVGDRVTITCQASESITRYLNWYQKKPGKAPKLLIYDASKLPSGVPSRFSGSGSGTEFTLTISSLQPDDFATYYCQSTSFRGRSYQNTFGGGTKVEIK VH 2: EVQLVQSGAEVKKPGASVKVSCKASGFTFTSYYIHWVRKAPGQGLEWIGWIYPENDNTKYNEKFKDRVTITADTSTSTAYLELSSLRSEDTAVYYCARDGYSRYYFDYWGQGTLVTVSS VL 2: DIVMTQSPDSLAVSLGERATINCKSSQSLLNSRTRKNYLAWYQEKPGQSPKLLIYWTSTRKSGVPDRFSGSGSGTDFTLTISSLQAEDVAVYYCKQSFILRTFGQGTKVEIK	0.0154 µM and 0.0165 µM	0.0399 s⁻¹ and 0.0437 s⁻¹	2.6e+06 M⁻¹ s⁻¹ and 2.65e+06 M⁻¹ s⁻¹	0.0159											
LY6G6D TDB assembled using a one-cell system comprising the anti-LY6G6D 20A12.QNTv12 arm (one-cell) and the anti-CD3 38E4v1 MD1 arm (bispecific antibody, V domains shown) VH 1: EVQLLESGGGLVQPGGSLRLSCAASGFDFVNNAMIWVREAPGKGLEWVSALSFADNTAYYATWASGRFTISRDSSKTTVYLQMNSLRAEDTAVYYCMRGDLWGPGTLVTVSS VL 1: DIQMTQSPSTLSASVGDRVTITCQASESITRYLNWYQKKPGKAPKLLIYDASKLPSGVPSRFSGSGSGTEFTLTISSLQPDDFATYYCQSTSFRGRSYQNTFGGGTKVEIK VH 2: EVQLVQSGAEVKKPGASVKVSCKASGFTFTSYYIHWVRKAPGQGLEWIGWIYPENDNTKYNEKFKDRVTITADTSTSTAYLELSSLRSEDTAVYYCARDGYSRYYFDYWGQGTLVTVSS VL 2: DIVMTQSPDSLAVSLGERATINCKSSQSLLNSRTRKNYLAWYQEKPGQPPKLLIYWASTRESGVPDRFSGSGSGTDFTLTISSLQAEDVAVYYCTQSFILRTFGQGTKVEIK	0.0266 µM and 0.0256 µM	0.0383 s⁻¹ and 0.0376 s⁻¹	1.44e+06 M⁻¹ s⁻¹ and 1.47e+06 M⁻¹ s⁻¹	0.0261		0.00363	0.000512	141000							
LY6G6D TDB assembled using a one-cell system comprising the anti-LY6G6D 20A12.QNTv12 arm (one-cell) and the anti-CD3 38E4v1 MD4 arm (bispecific antibody, V domains shown) VH 1: EVQLLESGGGLVQPGGSLRLSCAASGFDFVNNAMIWVREAPGKGLEWVSALSFADNTAYYATWASGRFTISRDSSKTTVYLQMNSLRAEDTAVYYCMRGDLWGPGTLVTVSS VL 1: DIQMTQSPSTLSASVGDRVTITCQASESITRYLNWYQKKPGKAPKLLIYDASKLPSGVPSRFSGSGSGTEFTLTISSLQPDDFATYYCQSTSFRGRSYQNTFGGGTKVEIK VH 2: EVQLVQSGAEVKKPGASVKVSCKASGFTFTSYYIHWVRKAPGQGLEWIGWIYPENDNTKYNEKFKDRVTITADTSTSTAYLELSSLRSEDTAVYYCARDGYSRYYFDYWGQGTLVTVSS VL 2: DIVMTQSPDSLAVSLGERATINCKSSQSLLNSRTRKNYLAWYQEKPGQPPKLLIYWASTRKSGVPDRFSGSGSGTDFTLTISSLQAEDVAVYYCKQSFILRTFGQGTKVEIK	0.014 µM and 0.0147 µM	0.0433 s⁻¹ and 0.0426 s⁻¹	3.09e+06 M⁻¹ s⁻¹ and 2.89e+06 M⁻¹ s⁻¹	0.0144		0.00262	0.000574	219000							
